# Data taken from patent publication US11565003B2, “Mechanical opening of lipid bilayers by molecular nanomachines” (William Marsh Rice University, priority 2016, dated 2023).
# Starred links: 1 amine or outer side, 2 acyl side, 3 side chain; linkers in the order of their positions; H or OH if unused. Positions of bridges follow the written chain, without caps; N, C: chain ends. Residues, ends and D or L forms follow the SMILES beside them. Chains are numbered I, II in the order given. X2 = C[C@@H]1Cc2ccc3ccccc3c2C1=C1c2cc(C#CCCn3cc(C(=O)[*:1])nn3)ccc2Sc2ccc(C#CCCn3cc(C(=O)[*:2])nn3)cc21
# System: PC-3 cells
# Test: 24 hours incubation without UV: proliferation and apoptosis (Annexin V, Image Cytometry)
# Assay type: cell-based, human
# Method: When PC-3 cells are loaded at 0.5 or 1.0 μM with 9 or 10, washed three times (Method B) or unwashed (Method A) after 24 hours of incubation, the cells visually appear without major signs of toxicity. However, the cells which had been incubated with 9 or 10 over 24 hours were not dividing as prolifically. The cultures appear to be populated ˜25% less in the presence of 9 and 20% of the cells in 10 compared to control untreated cells (FIGS. 12A-E).
# In order to further investigate this point, these cells were collected via gentle centrifugation and re-suspended in fresh PBS and analyzed by Image Cytometry. Using Annexin V, these cells were all confirmed to show signs of apoptosis at 93±5%. This is in contrast to the remaining coverslip surface-bound cells that appear healthy.
# These latter types of non-apoptotic cells show identical percentage of necrosis acceleration upon subsequent UV-activation of the cell-surface bound nanomachines compared to their shorter incubation time analogues. Thus, it appears that, upon 24 hour incubation, a noticeable amount of cells have nanomachines 9 and 10 either bound to vital cell membrane channels or transport proteins or they are internalized, subsequently shutting down some natural homeostatic mechanisms that leads to programmed cell death (FIGS. 12A-E). Furthermore, this is not the case with shorter incubation times regardless of whether Method A or B is used.
compound,measurement,setting,value
CC(C)[C@H](NC(=O)[C@H](CCCNC(=N)N)NC(=O)[C@@H](NC(=O)[C@H](CC(N)=O)NC(=O)[C@H](CO)NC(=O)c1cn(CCC#Cc2ccc3c(c2)C(=C2c4c(ccc5ccccc45)C[C@H]2C)c2cc(C#CCCn4cc(C(=O)N[C@@H](CO)C(=O)N[C@@H](CC(N)=O)C(=O)N[C@H](C(=O)N[C@@H](CCCNC(=N)N)C(=O)N[C@H](C(=O)N[C@@H](C)C(=O)N5CCC[C@H]5C(=O)O)C(C)C)[C@@H](C)O)nn4)ccc2S3)nn1)[C@@H](C)O)C(=O)N[C@@H](C)C(=O)N1CCC[C@H]1C(=O)O [Compound 9] (I: SNTRVAP-OH / II: SNTRVAP-OH; linker I:N-II:N via X2),cultures populated less compared to control untreated cells,"PC-3, 0.5 or 1.0 μM, 24 hours of incubation, no UV",~25%
same,mobilized cells showing signs of apoptosis (Annexin V),"PC-3, 24 hours incubation, cells collected from culture media",93±5%
